To fix the notation:
B1: FDA027 (antibody, human IgG1, kappa, V domains shown)
VH: QVQLVQSGAEVKKPGASVKVSCKASGYTFTNYGMNWVRQAPGQGLEWMGWINTYTGEPTYADDFKGRVTMTTDTSTSTAYMELRSLRSDDTAVYYCARIGDSSPSDYWGQGTLVTVSS
VL: EIVMTQSPATLSVSPGERATLSCKASQSVSNDVVWYQQKPGQAPRLLIYYASNRYTGIPARFSGSGSGTEFTLTISSLQSEDFAVYYCQQDYTSPWTFGQGTKLEIKR
notes: also called anti-DLL3 antibody FDA027
B2: 19C7 (antibody, V domains shown)
VH: EVQLQQSGPELVRPGASVRMSCKASGYTFTYYVMHWVKQKPGLGLEWIGYINPYNDGTEYNEKFKGKATLTSDKSSSTAFMELSSLTSEDSAVYYCARWLLREYAMDYWGQGTSVTVSS
VL: DIQMTQSPASLSASVGETVTITCRASDNIHNYLAWYQQKQGKSPQLLVYNAKTLADGVPSRFSGSGSGTQYSLKINSLQPEDFGSYYCQHFWSTPWTFGGGTKLEIK
notes: Murine hybridoma monoclonal antibody; also called hybridoma antibody clone 19C7
B3: 26D9 (antibody, V domains shown)
VH: EVQLQQSGPELVKPGASVKMSCKASGYTFTTYVMHWVKQKPGQGLEWIGYINPYNDDTNYNEKFKGKATLTSDKSSSTAYMELSSLTSEDSAVYYCARWGLTGTGDYYAMDYWGQGTSVTVSS
VL: B2 VL with D27G, I29V, K42R, L46V, Q79L, S93T, K103T
notes: Murine hybridoma monoclonal antibody; also called hybridoma antibody clone 26D9
B4: 6A2 (antibody, V domains shown)
VH: EVQLQQSGPELVKPGASVKISCKASGYTFTDYNMNWVKQSQGKSLEWIGYIYPYNGGTGYNQKFKTKATLTVDNSSSTAYMEFRSLTSEDSAVYYCARSDPYYTMDYWGQGTSVTVSS
VL: IIVMTQTPKFLLVSAGDRVTISCKASQSVNNDVAWYQQKPGQSPKLLIYFTSNRFTGVPDRFTGSGYGTDFTFTISSVQAEDLAVYFCQQDHNSPYTFGGGTKLEIK
notes: Murine hybridoma monoclonal antibody; also called hybridoma antibody clone 6A2
B5: 15G2 (antibody, V domains shown)
VH: EVQLQQSGPELEKPGASVRISCKASGYSFTDYNMHWVKQSNGKSLEWIGNIDPYYGGTNYNQKFEGKATLTVDKSSSTAYMQLKSLTSEDSAVYYCARGGNNYGDYWGQGTTLTVSS
VL: DIQMTQSPASLAASVGETVTITCRASENIYYSLAWYQQKQGKSPQLLIFNANSLEDGVPSRFSGSGSGTQYSMKINSMQPEDTATYFCKQAYDVPWTFGGGTKLEIK
notes: Murine hybridoma monoclonal antibody; also called hybridoma antibody clone 15G2
B6: 32E8 (antibody, V domains shown)
VH: QVTLKESGPGILQPSQTLSLTCSFSGFSLSTSGMGVGWIRQPSGKGLEWLALIWWDDVKRYHPALKSRLTISKDTSSSQVFLKIASVDTADTATYYCARIAEVTGQVGLHYAMDYWGQGTSVTVSS
VL: QTVLTQSPAIMSASLGERVTMTCTASSSVNSSSLHWYQQKPGSSPKLWIYTTSNLASGVPARFSGSGSGTSYSLTISSMEAEDAATYYCHQFHRSPFTFGSGTKLEIK
notes: Murine hybridoma monoclonal antibody; also called hybridoma antibody clone 32E8
B7: 4H7 (antibody, V domains shown)
VH: EVQLQQSGAELVRPGALVKLSCKASGFNFKDYYIHWVKQRPELGLEWIGWIDPENGNAIYDPKFQDKASITADTSSNTAYLHLSSLTSEGTAVYYCASEDAYYPFAYWGQGTLVTVSS
VL: DIVMSQSPSSLAVSVGEKVTMRCKSSQSLLYSSNQKNYLAWYQQKPGQSPKLLIYWASTRESGVPDRFTGSGSGTDFTLTISSVKAEDLAVYFCQQYYSYRTFGGGTKLEIK
notes: Murine hybridoma monoclonal antibody; also called hybridoma antibody clone 4H7
B8: 23G2 (antibody, V domains shown)
VH: QVQLQQSGPELVRPGVSVKISCKGSGYTFTDYAIHWVKQSRAKSPEWIGIVSTDSGKTSFNQKFKGKATMTVDKSSTTAYMELVRLTSEDSAIYYCARNPYYDYDGYAMDYWGQGTSVTVSS
VL: DIQMTQSSSYLSVSLGGRVTIICKASDHINNWLAWYQQKPGNAPRLIISGATSLETGVPSRFSGSGSGKDYTLSITSLQTEDVATYYCQQYWSIPYTFGGGTKLEIK
notes: Murine hybridoma monoclonal antibody; also called hybridoma antibody clone 23G2
B9: 10B1 (antibody, V domains shown)
VH: DVKLVESGGGLVKPGGSLKLSCAASGFTFSNYTISWVRQTPEKRLEWVATFSSGGSYTYYSDSVKGRFTISRDNAKNTLYLQMSSLKSEDTAMYYCSRDRRSDGYYHLYAMDYWGQGTSVTVSS
VL: DIQMTQTTSSLSASLGDRVTISCRASQDISHYLNWYQQKPDGTVKLLIYYTSRLHSGVPSRFSGSGSGTAYSLTISNLEQEDIATYFCQQGYTLPLTFGAGTKLELK
notes: Murine hybridoma monoclonal antibody; also called hybridoma antibody clone 10B1
B10: 13C2 (antibody, V domains shown)
VH: EVKLVESGGGLVKPGGSLKLSCAASGFAFSSYDMSWVRQTPEKRLEWVATISSGGSYTYYPDSVKGRFTISRDNGRNTLYLQMSSLRSEDTALYYCASPLLGLRFAYWGQGTLVTVSA
VL: QAVVTQESALTTSPGETVTLTCRSSTGAVTTINYANWVQEKPDHLFTGLIGGTNNRAPGVPARFSGSLIGDKAALTITGAQTEDEAIYFCALYYSNHWVFGGGTKLTVL
notes: Murine hybridoma monoclonal antibody; also called hybridoma antibody clone 13C2
B11: 1A5 (antibody, V domains shown)
VH: EVQLQQSGPELVKPGASVKISCKTSGYTFTESAMHWVKQSHGKSLEWIGGINPNNGGISYSQKFKGKATLTVDKSSSTAYMELRSLTSEDSAVYYCGSSYYRDYFDYWGQGTTLTVSS
VL: NIVMTQSPESMSMSVGERVTLSCKASENVGTYVSWYQQKPDQSPKLLIYGASNRYTGVPDRFTGSGSATHFTLTISSVQAEDLADYHCGQSYSYPLTFGAGTKLELK
notes: also called hybridoma antibody clone 1A5
B12: 33F11 (antibody, V domains shown)
VH: B11 VH with S32N, A33T, K43E, N54R, G57V, I58T, S61N, G97T, S98N, S99T
VL: B11 VL with E9K, A68P, H70D, S77R, V78M, D85H, H87Y, S91T, S93T
notes: Murine hybridoma monoclonal antibody; also called hybridoma antibody clone 33F11

Numbering of substitutions follows the chain as printed.

The target of one assay is T1, recombinant DLL3 protein (purchased from ACRO, DL3-H5255) (human, UniProt Q9NYJ7 27-479).
T1 construct: Bought; also called human DLL3 protein; hDLL3
T1 sequence (looked up): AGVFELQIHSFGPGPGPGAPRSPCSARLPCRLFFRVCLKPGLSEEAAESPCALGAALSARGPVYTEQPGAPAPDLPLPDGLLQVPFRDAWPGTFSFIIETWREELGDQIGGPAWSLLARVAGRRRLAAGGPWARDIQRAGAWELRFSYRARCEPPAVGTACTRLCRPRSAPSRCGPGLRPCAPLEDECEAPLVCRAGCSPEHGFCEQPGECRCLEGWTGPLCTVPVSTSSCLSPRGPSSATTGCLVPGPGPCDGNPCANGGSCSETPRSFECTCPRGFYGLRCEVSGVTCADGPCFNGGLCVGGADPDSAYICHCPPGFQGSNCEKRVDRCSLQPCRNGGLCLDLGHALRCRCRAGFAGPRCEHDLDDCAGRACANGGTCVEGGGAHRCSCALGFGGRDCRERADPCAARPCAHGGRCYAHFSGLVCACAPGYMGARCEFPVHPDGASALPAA
In words: ELISA, plate-coated human DLL3 protein 1 µg/ml. The text has this: Six 6-week-old SPF grade female Balb/C mice (purchased from Shanghai Jihui Laboratory Animal Care Co., Ltd.) were selected and randomly divided into two groups, A and B. They were immunized with recombinant DLL3 protein (purchased from ACRO, DL3-H5255) at two-week intervals. Freund's complete adjuvant was used for the first immunization and Freund's incomplete adjuvant was used for subsequent immunizations. On days 35 and 49, blood samples were collected from the mice via orbital bleeding, and the immune serum titers of the mice were detected using conventional methods of ELISA and Flow Cytometry (FACS). ELISA detection method: DLL3 protein was diluted with PBS to a concentration of 1 μg/ml. 100 μl/well was added to a 96-well ELISA plate and incubated overnight at 4° C. The next day, the supernatant was discarded, and each well was blocked with 200 μl of 2% milk in PBS for 2 hours. After discarding the blocking solution, the wells were washed 3 times with 200 μl of PBST (0.1% Tween20). The serum to be detected was pre-diluted 100 times as the starting concentration, followed by a 3-fold gradient dilution across 11 concentrations, with 100 μl added to each well of the ELISA plate. After incubating at room temperature for 1 hour, the supernatant was discarded and the wells were washed 5 times with 200 μl of PBST (0.1% Tween20). Then, 100 μl of HRP-labeled goat anti-mouse secondary antibody (Jackson, 1:10000) was added and incubated at room temperature for 1 hour. After discarding the supernatant, the wells were washed 7 times with 200 μl of PBST (0.1% Tween20). 100 μl of TMB chromogen solution was added to each well for 10 minutes. The reaction was terminated with 2M HCl, and absorbance value at 450 nm was read with a Microplate Reader (purchased from Biotek, Elx808).
For the hybridoma clones with good binding and internalization activities identified in Example 5, the heavy chain variable region sequences were synthesized and cloned into the pFUSEss-CHIg-hG1 vector (purchased from InvivoGen, catalog number pfusess-hchgl) comprising the amino acid sequence of the human antibody IgG1 heavy chain constant region by homologous recombination.
For B1, the EC50 is 0.0108 µg/mL.

The next assay deals with T2, human DLL3 (hDLL3) on cells (human, UniProt Q9NYJ7 27-618).
T2 construct: whole, on cells; V5-tagged); also called DLL3 on SHP-77 cells (endogenous); hDLL3 on HEK293 cells
T2 sequence (looked up): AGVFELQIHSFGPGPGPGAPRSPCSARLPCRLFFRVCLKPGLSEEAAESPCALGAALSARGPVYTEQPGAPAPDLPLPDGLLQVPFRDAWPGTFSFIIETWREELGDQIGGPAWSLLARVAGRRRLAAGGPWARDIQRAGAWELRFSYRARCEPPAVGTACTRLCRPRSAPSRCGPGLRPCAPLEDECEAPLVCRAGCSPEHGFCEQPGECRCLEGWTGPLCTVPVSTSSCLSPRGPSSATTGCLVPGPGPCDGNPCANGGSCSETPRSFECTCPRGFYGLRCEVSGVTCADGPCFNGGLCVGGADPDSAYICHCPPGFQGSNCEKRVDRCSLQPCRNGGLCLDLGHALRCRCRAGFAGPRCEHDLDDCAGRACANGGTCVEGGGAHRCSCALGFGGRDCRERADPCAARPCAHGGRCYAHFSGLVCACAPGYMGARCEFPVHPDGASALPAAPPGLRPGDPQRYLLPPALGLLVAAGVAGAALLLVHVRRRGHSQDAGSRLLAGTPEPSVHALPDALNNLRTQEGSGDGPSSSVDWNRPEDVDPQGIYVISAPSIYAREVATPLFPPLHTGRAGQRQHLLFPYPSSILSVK
In words: flow cytometry on SHP-77 cells, 1 µg/ml antibody, kept on ice (0 H of the internalization assay). The protocol: The SHP-77 cells were used to detect the internalization activity of the hybridoma antibodies obtained in Example 3-3 by using the FACS method described in Example 3-1. The detecting method is briefly described as follows: Six aliquots of 5×10⁵ SHP-77 cells each were prepared in a 96-well V-bottom plate and centrifuged at 1500 r/min for 1 minute, after which the supernatant was discarded. 1 μg/ml of the saturated antibody to be detected was added to each well (200 μL per well) and incubated on ice for 30 minutes. Then, 150 μL of PBS was added to each well, followed by centrifugation at 1500 r/min for 1 minute, and the supernatant was discarded. This step was repeated four times. The cells were resuspended in 200 μl of PBS, and one aliquot was incubated at 37° C. for various durations: 5 hours, 3 hours, 1 hour, 0.5 hours, and 15 minutes. The remaining aliquot was kept on ice. After incubation, all samples were centrifuged at 4° C., 1500 r/min for 1 minute, and the supernatant was discarded. APC-labeled goat anti-mouse IgG (Jackson, catalog number 109-605-098, diluted 1:800 in PBS) was added to each well (50 μL per well) and incubated on ice for 30 minutes. The cells were then washed four times by resuspending in 150 μL of PBS, followed by centrifugation at 1500 r/min for 1 minute and discarding the supernatant. Finally, the cells were resuspended in 100 μL of PBS and analyzed using a CytoFLEX flow cytometer (purchased from Beckman).
As to B2, the “fluorescence value at 0 H” value amounted to 29600.
Same read-out and setting: the figure for B3 is 15300.
The same measure, in the same setting: the value for B4 was 20300; that for B5 was 20300; that for B6 was 32100.
Consider B7, for which the “fluorescence value at 0 H” value is 15400.
Regarding B8, the “fluorescence value at 0 H” value was determined as 20300.
Same read-out and setting: the figure for B9 is 22400; for B10 it is 40200.
Still for that read-out and setting: the value for B11 was 39300; that for B12 was 27600.

These data come from US20250114467A1 (SHANGHAI FUDAN ZHANGJIANG BIO PHARMACEUTICAL, published 2025).
